The text below walks through data of US20220265819A1.

This test deals with full length pHrodo-labelled monomeric (P301S) 2N4R tau (human) (UniProt P10636). Nature of the test: cell-based or functional assay.
Sequence of full length pHrodo-labelled monomeric (P301S) 2N4R tau (human) (P10636 other isoform, or with tags, fused parts or gaps P301S P301S): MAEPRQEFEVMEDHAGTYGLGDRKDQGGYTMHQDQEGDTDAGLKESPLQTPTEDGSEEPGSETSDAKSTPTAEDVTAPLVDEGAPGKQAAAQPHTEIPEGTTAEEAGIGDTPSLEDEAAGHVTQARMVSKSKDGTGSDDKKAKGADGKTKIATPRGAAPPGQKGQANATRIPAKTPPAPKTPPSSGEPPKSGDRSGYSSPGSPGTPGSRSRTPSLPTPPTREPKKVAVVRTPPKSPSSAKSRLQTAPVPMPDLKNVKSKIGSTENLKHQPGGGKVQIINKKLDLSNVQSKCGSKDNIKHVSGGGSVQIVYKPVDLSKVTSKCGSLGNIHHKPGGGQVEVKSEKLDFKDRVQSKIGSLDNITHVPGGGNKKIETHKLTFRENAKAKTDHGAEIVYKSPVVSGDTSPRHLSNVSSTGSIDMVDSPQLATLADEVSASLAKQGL

human IgG1 isotype control (antibody) gave an inhibition of uptake of monomeric tau into human iPSC-derived neurons of 16.9 % inhibition.
“isotype control rabbit IgG (Abcam) (antibody)” returned an inhibition of uptake of monomeric tau into human iPSC-derived neurons of 14.5 % inhibition.
